Experimental data: US20230287068A1, “KERATIN BD-6, PREPARATION METHOD THEREFOR AND PHARMACEUTICAL COMPOSITION AND USE THEREOF” (INSTITUTE OF MATERIAL MEDICA, CHINESE ACADEMY OF MEDICAL …, priority 2019, published 2023)

Columns and labels:
[1] = tested on: phenol red excretion method in mice; experiment: Expectorant test, phenol red excretion method in mice; type: in vivo, ICR mice; settings: for Phenol red excretion: X±SEM, N=10
Method: • Animals: male ICR mice; • Drugs and reagents: Mucosolvan (ambroxol hydrochloride tablets), phenol red, sodium bicarbonate, protein BD-6; • Instruments: centrifuge (Sigma-3K15 type), balance (XS105DU type), Microplate tester (BIO-TEK type). • Experiment grouping: • Solvent control group; • Mucosolvan 30 mg/kg group; • Protein BD-6, 20 mg/kg group, 50 mg/kg group.
The animals were fasted and water was taken freely 16 hours before the experiment. Orally administered Mucosolvan and different doses of protein BD-6 (administration volume 10 ml/kg) in groups, and the solvent control group was given the same volume of distilled water. One hour later, 2.5% phenol red solution was injected intraperitoneally. Mice were sacrificed by neck dislocation after 30 minutes. Take a trachea from below the thyroid cartilage to the branch of the trachea, and put the trachea into 3 ml 5% NaHCO3 solution and let it stand for 3 hours. Take 1 ml of the supernatant and centrifuge at 3000 rpm for 5 minutes. Measure and record the absorbance at 546 nm. According to the standard curve of phenol red, the excretion of phenol red was calculated.
Record the time point of oral administration, the time point of intraperitoneal injection of 2.5% phenol red solution, and the time point of taking the trachea respectively; The absorbance of each group of samples was measured by the microplate reader at 546 nm, Calculate the excretion of phenol red according to the standard curve of phenol red. Calculate the mean and standard error of the data in each group, and use TTEST to compare the solvent control group with other groups, and P<0.05 is considered as a significant difference.

[2] = tested on: PLO-induced epilepsy in mice; experiment: Pilocarpine (PLO) induced convulsive epilepsy in mice; type: in vivo, ICR mice; set-up: mortality rate: unit not given here; settings: for Cases of deaths / Grade IV seizure rate / mortality rate / Cases of Grade IV / Grade II seizure incubation period / Grade III seizure incubation period / Grade IV seizure incubation period: PLO 225 mg/kg i.p.; for Cases of deaths / Grade IV seizure rate / mortality rate / Cases of Grade IV: 10 mice; for Cases of Grade IV: 30 min observation; for Grade II seizure incubation period / Grade III seizure incubation period / Grade IV seizure incubation period: mean±SEM; for Grade IV seizure incubation period: maximum 1800 seconds
Method: • Animals: male ICR mice; • Drugs: Pilocarpine HCl (PLO, pilocarpine, pilocarpine hydrochloride), Diazepam (diazepam tablets), protein BD-6. • Experiment grouping: • Model group: • Diazepam 2 mg/kg group; • Protein BD-6, 50 mg/kg group, 200 mg/kg group.
The drug was administered once in the afternoon the day before modeling, PLO-225 mg/kg (modeling agent) was injected intraperitoneally 1 hour after the test drug was administered intragastrically on the day of modeling. And positive drug can be administered once 20 minutes before modeling. Observe for 30 minutes after PLO injection.
Observation indicators: ①Seizure situation: the time of seizures from Grade II to Grade IV; ②the time to death.
Seizure grade: Refer to Racine grading standard: Grade 0: No response; Grade I: manifested as twitching of facial muscles or the corners of the mouth; Grade II: can nod; Grade III: twitching of one limb; Grade IV: rigidity or body twitching; Grade V: generalized epilepsy (generalized tonic seizures).
Count the number of Grade IV seizures and deaths in each group of mice in the experiment; Grade II, III and IV incubation period. […] Chi-square test was used for statistics of the number of cases. The mean value and standard error of the incubation period were calculated, and TTEST was used to compare the model group with other groups. P<0.05 was considered as a significant difference.

[3] = tested on: lipopolysaccharide (LPS) induced fever model in rats; experiment: Lipopolysaccharide (LPS) induced fever model in SD rats; type: in vivo; settings: for Body temperature 2 hours after modeling / Body temperature 4 hours after modeling / Body temperature 6 hours after modeling / Body temperature 8 hours after modeling: LPS 20 µg/kg i.p., SD rats
Method: • Animals: 230-260 grams of male SD rats; • Drugs: lipopolysaccharide (LPS, SIGMAL-2880), aspirin (SIGMAA2093), protein BD-6; • Instruments: electronic balance (SARTORIUS BP121S type), electronic clinical thermometer (CITIZEN CT-513W type). • Experiment grouping: • Normal control group; • Model group: lipopolysaccharide fever model; • Positive control group: Aspirin 300 mg/kg group; • Protein BD-6, 10 mg/kg group, 50 mg/kg group.
Method: the method of intraperitoneal injection of Lipopolysaccharide to replicate rat fever model.
Preparation of experimental animals: After the experimental animals adapt to the experimental environment (temperature 22° C.±2° C., relative humidity 50%±2%) for 1 day. Pre-adaptation to measure rectal temperature at 8:00 and 15:00, rats were fasted and water was taken freely 12 h before experiment, and let the animal to empty its feces before measuring the rectal temperature. Apply petroleum jelly to the electronic thermometer probe before each temperature measurement. Insert the rat rectum 2 cm (can be marked at 2 cm to ensure that the depth of each insertion is consistent), and record the body temperature after the reading is stable.
Intraperitoneal injection of lipopolysaccharide to replicate rat fever model: The body temperature of the rats was measured before modeling. Qualified rats with a body temperature of 36.2-37.3° C. were selected and randomly divided into groups with 8 rats in each group. After oral administration of aspirin and different doses of protein BD-6, lipopolysaccharide (20 µg/kg, 2 ml/kg) was injected intraperitoneally immediately, and the normal control group was injected intraperitoneally with an equal volume of normal saline. The body temperatures of the rats were monitored after 2 hours for a total of 8 hours.
According to the body temperature measured at each time point on the day of the experiment, calculate the mean, standard deviation and standard error of the body temperature of each group of rats. The data of each group was compared with TTEST, and P<0.05 was considered as a significant difference.

B1: BD-6: recombinant keratin with the amino acid sequence SEQ ID NO:1, expressed in E. coli, about 45 kD; protein of Example 4 (protein, listed as Bos taurus)
chain: MTTTIRHFSSGSIKGSSGLAGGSSRSCRVSGSLGGGSCRLGSAGGLGSGLGGSSYSSCYSFGSGGSYGSGGYVSGGYGGGFGGVDGLLVGGEKATMQNLNDRLASYLDKVRALEEANTELELKIRDWYQKQAPGPAPDYSSYFKTIEDLRNKIHTATVDNANLLLQIDNARLAADDFRTKFETEQALRVSVEADINGLRRVLDELTLARADLEMQIENLKEELAYLRKNHEEEMKALRGQVGGEINVEMDAAPGVDLSRILNEMRDQYEKMAEKNRKDAEDWFFSKTEELNREVATNSELVQSGKSEISELRRTLQALEIELQSQLSMKASLEGSLAETENRYCMQLSQIQGLIGSVEEQLAQLRCEMEQQNQEYKILLDVKTRLEQEIATYRRLLEGEDAHLTQYKTKEPVTTRQVRTIVEEVQDGRVISSREQVHQTSH
Excretion of phenol red vs solvent control (in words) ([1]; BD-6 20 mg/kg and 50 mg/kg, P<0.05): significantly increased the excretion of phenol red | Phenol red excretion ([1]; BD-6 20 mg/kg oral): 0.789±0.115^∗ µg/ml | Phenol red excretion ([1]; BD-6 50 mg/kg oral): 0.855±0.085^∗∗ µg/ml | Cases of deaths ([2]; BD-6 50 mg/kg intragastric): 0 | Grade IV seizure rate ([2]; BD-6 50 mg/kg intragastric): 40% | mortality rate ([2]; BD-6 50 mg/kg intragastric): 0 | Cases of Grade IV ([2]; BD-6 50 mg/kg intragastric): 4 | Grade II seizure incubation period ([2]; BD-6 50 mg/kg intragastric): 110±7^∗ s | Grade III seizure incubation period ([2]; BD-6 50 mg/kg intragastric): 169±9^∗ s | Grade IV seizure incubation period ([2]; BD-6 50 mg/kg intragastric): 1439±155^∗ s | Incubation period of epilepsy Grade II, III and IV vs model group (in words) ([2]; BD-6 50 mg/kg, PLO model): statistically different from the model group | Cases of deaths ([2]; BD-6 200 mg/kg intragastric): 0 | Grade IV seizure rate ([2]; BD-6 200 mg/kg intragastric): 50% | mortality rate ([2]; BD-6 200 mg/kg intragastric): 0 | Cases of Grade IV ([2]; BD-6 200 mg/kg intragastric): 5 | Grade II seizure incubation period ([2]; BD-6 200 mg/kg intragastric): 99 ± 6 s | Grade III seizure incubation period ([2]; BD-6 200 mg/kg intragastric): 157 ± 8 s | Grade IV seizure incubation period ([2]; BD-6 200 mg/kg intragastric): 1279 ± 181 s | Body temperature 2 hours after modeling ([3]; BD-6 10 mg/kg oral): 37.1±0.2 °C | Body temperature 4 hours after modeling ([3]; BD-6 10 mg/kg oral): 37.4±0.2 °C | Body temperature 6 hours after modeling ([3]; BD-6 10 mg/kg oral): 37.3±0.2 °C | Body temperature 8 hours after modeling ([3]; BD-6 10 mg/kg oral): 37.2±0.2 °C | Body temperature 2 hours after modeling ([3]; BD-6 50 mg/kg oral): 37.2±0.1 °C | Body temperature 4 hours after modeling ([3]; BD-6 50 mg/kg oral): 37.5±0.2 °C | Body temperature 6 hours after modeling ([3]; BD-6 50 mg/kg oral): 37.4±0.2 °C | Body temperature 8 hours after modeling ([3]; BD-6 50 mg/kg oral): 37.4±0.2 °C | Effect on body temperature (in words) ([3]; BD-6 10 and 50 mg/kg, 2 hours after modeling, P<0.05 vs model group): can reduce the body temperature of the model rats to different degrees
